± gives the standard deviation of the averaged measurements.
What follows are sequences tested on Saccharomyces cerevisiae (assay: protein stability index of tFT-peptide fusion (C-terminal peptide) (PSI (0-1 scale)); higher = more stable (slower turnover)). Conditions: genetic background: wild type; temperature: 30 C.
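Note: PSI is a weighted mean of sequencing reads over stability bins, variants kept only with over 10 reads, mCherry proximal and sfGFP distal, peptide attached via GGGS linker.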

Row | Sequence | protein stability index
1 | SLDQRPSLSFKR | 0.663 ± 0.015
2 | PGLIPSPRYLLP | 0.656 ± 0.024
3 | GGGRGWAGENTR | 0.704 ± 0.028
4 | ERKKDGRKVRKK | 0.658 ± 0.012
5 | PLTVARTHRGHA | 0.689 ± 0.014
6 | SSPLTPAPLCSS | 0.702 ± 0.1
7 | FCPSLFLNPHSC | 0.6739 ± 0.00084
8 | PDHFPSPALPTH | 0.702 ± 0.0097
9 | RLLFPTLTAYLL | 0.63 ± 0.029
10 | KVMTEARTPALS | 0.702 ± 0.027
11 | SAVWWDRLDIRK | 0.687 ± 0.012
12 | GSFVEEVFRVKS | 0.6646 ± 0.0061
13 | TLDGGESSVVAV | 0.685 ± 0.025
14 | ILSDRVLRVGVK | 0.65502 ± 0.00049
15 | LLLLNSFFISPP | 0.742 ± 0.027
16 | VQRFLGSCPLSI | 0.611 ± 0.051
17 | RLFHYPPPRHSY | 0.61 ± 0.043
18 | DGKAGRKGFWRK | 0.746 ± 0.023
19 | RGWKDQYIDADR | 0.689 ± 0.012
20 | GGRVLKFLLGRL | 0.668 ± 0.15
21 | QSQGTRLAPVTR | 0.729 ± 0.068
22 | PSSSVICLLPPA | 0.636 ± 0.04
23 | GPFRRLRCTAFI | 0.713 ± 0.059
24 | PSISSTSPLPRP | 0.633 ± 0.039
25 | AKYPLTRCLFGS | 0.705 ± 0.033
26 | LGGEVDLGPARG | 0.662 ± 0.092

Row | Sequence | protein stability index
27 | ELHPLPLPPPAV | 0.743 ± 0.013
28 | PPAPPSPPHPPL | 0.7133 ± 0.0036
29 | PIVRTQLGNSVQ | 0.696 ± 0.067
30 | KPPPSISLSWLE | 0.716 ± 0.0024
31 | TLCFRLGFLSYF | 0.604 ± 0.091
32 | LPSLHPPPSPQP | 0.777 ± 0.08
33 | PPPPPPLPLLSI | 0.668 ± 0.038
34 | PCPAPLPPPAPP | 0.619 ± 0.0098
35 | AVNFESSHPICA | 0.58 ± 0.0073
36 | AYPRLRPSPSPH | 0.7212 ± 0.0066
37 | FGSRYLGVVSGC | 0.656 ± 0.037
38 | NIIADTHARRRF | 0.748 ± 0.11
39 | NGTGGVEGPQTL | 0.659 ± 0.025
40 | YILPTPKAFRSF | 0.738 ± 0.17
41 | VSLCGSGLGLWV | 0.682 ± 0.033
42 | LLVWPLDQTFRL | 0.698 ± 0.019
43 | TGWLRLLHAASG | 0.656 ± 0.045
44 | PPSLPHLCRLHL | 0.668 ± 0.057
45 | EQFLRCEALGAW | 0.661 ± 0.02
46 | PLLPSLPLPPSP | 0.716 ± 0.011
47 | VPKRLLSFDQGG | 0.6801 ± 0.0032
48 | AMGILSHLTACW | 0.659 ± 0.048
49 | YLLKRSQSLLII | 0.5 ± 0.014
50 | PPLPPPPPAPAP | 0.634 ± 0.016
51 | ALGGKDQSRSSS | 0.699 ± 0.019
52 | KVLGSNNMRRSS | 0.702 ± 0.018

Row | Sequence | protein stability index
53 | YTPSPHVRAPRH | 0.737 ± 0.025
54 | ELDFFIGYGVFC | 0.626 ± 0.0082
55 | RLGGRGRGSIHS | 0.652 ± 0.022
56 | RISWLKEATAIK | 0.689 ± 0.019
57 | LWGGAGAGYWVG | 0.727 ± 0.033
58 | SVSVLSPPPLPP | 0.636 ± 0.015
59 | SVGQWSGGRACW | 0.751 ± 0.043
60 | RLFASNPALSNL | 0.709 ± 0.027
61 | PFECRRPFPPPA | 0.764 ± 0.067
62 | IATMSVAGGPRL | 0.677 ± 0.015
63 | RTKMKERTCEEG | 0.697 ± 0.02
64 | KKKKEEKQKGLK | 0.69 ± 0.028
65 | LLFPFSLHLSPP | 0.765 ± 0.066
66 | SLFPQIFFFFFA | 0.498 ± 0.0099
67 | DVLLKVDATKTP | 0.685 ± 0.032
68 | WYKIQILDPNVG | 0.749 ± 0.011
69 | WCPVHGSGGAPL | 0.674 ± 0.026
70 | PGRLVVGAGRED | 0.707 ± 0.036
71 | PSAPPTPLAPSH | 0.678 ± 0.028
72 | FLTPPSLSLPPP | 0.68 ± 0.0084
73 | KKNKQEKPKKPK | 0.698 ± 0.0062
74 | LPSSFLPVPAPP | 0.6976 ± 0.00082
75 | SLVLPIFRIVSF | 0.573 ± 0.039
76 | IGLSPICAAAYT | 0.6515 ± 0.001
77 | NAYRYFLNKQNR | 0.697 ± 0.012
78 | APEGGEAQVLPA | 0.6842 ± 0.0022

Row | Sequence | protein stability index
79 | MEGNQTSVRGRT | 0.677 ± 0.083
80 | SPLPPPPAPFLP | 0.6762 ± 0.0028
81 | SPPPSRHPPPRL | 0.708 ± 0.016
82 | KHTKRIRLYKTK | 0.7831 ± 0.0034
83 | WLGFHFLFLWKC | 0.587 ± 0.1
84 | ALLLPFPPPPPP | 0.559 ± 0.03
85 | FLLNPPSLPCYY | 0.727 ± 0.034
86 | PPIPNPPPHPLP | 0.657 ± 0.057
87 | SPPRLPPLAAPP | 0.676 ± 0.07
88 | APIWRSLRGLAI | 0.555 ± 0.18
89 | AFGAPVVRHATF | 0.723 ± 0.02
90 | GGVVACGLRVAS | 0.62 ± 0.058
91 | PPSSPLRRRTTS | 0.725 ± 0.078
92 | LFYFDTWFFPPP | 0.762 ± 0.097
93 | GFTGWGRRWLGG | 0.713 ± 0.059
94 | FFWGRFCLGLWS | 0.568 ± 0.067
95 | DERTTLMRGNNV | 0.651 ± 0.017
96 | AARPLGLPSASG | 0.7113 ± 0.0062
97 | EEKRKRKSQNEI | 0.702 ± 0.045
98 | GWRVSQVLGGDR | 0.741 ± 0.042
99 | IFPVFHPPFVVI | 0.557 ± 0.05
100 | WAGGGRVDDGGG | 0.643 ± 0.059
101 | RRTGTFSGLAGL | 0.696 ± 0.0071
102 | ILTALRNQPFLM | 0.669 ± 0.033
103 | PSASRILSPPLP | 0.649 ± 0.016
104 | GVTNRQMAWCFS | 0.606 ± 0.071

Row | Sequence | protein stability index
105 | LFYVNIPTQFVR | 0.564 ± 0.014
106 | CEPSLPGRSRRA | 0.753 ± 0.056
107 | KKRKKDKRSQER | 0.671 ± 0.068
108 | AARFRAVPVFGN | 0.661 ± 0.037
109 | SLLPLHPPLTLP | 0.674 ± 0.19
110 | LYSPSLRPPLLL | 0.855 ± 0.18
111 | GRGKGNEREVRT | 0.656 ± 0.022
112 | SRLRITIRNVHS | 0.629 ± 0.048
113 | GRERMVVVSCGS | 0.629 ± 0.043
114 | DRHGLVGGWWAW | 0.7459 ± 0.0052
115 | PPPPLDSFPFIT | 0.701 ± 0.043
116 | HWSMRVNRTEGG | 0.663 ± 0.055
117 | WAARLDISQSPI | 0.754 ± 0.011
118 | DLKGCVTFCTSI | 0.638 ± 0.049
119 | RRRSGAPVMRGS | 0.645 ± 0.074
120 | RPSHSPAFSAFF | 0.681 ± 0.024
121 | PPFFPLRPSLVL | 0.656 ± 0.051
122 | LVEARQGAFLVV | 0.692 ± 0.029
123 | CRGEGGRTVING | 0.634 ± 0.063
124 | LPPSSSPCPLPS | 0.7304 ± 0.0053
125 | RTSKRKKSDARK | 0.784 ± 0.022
126 | WAGLAQPKLVLH | 0.659 ± 0.024
127 | AGRGGTGIGERV | 0.63 ± 0.072
128 | PPPGSPLPPPRA | 0.702 ± 0.036
129 | ALPNPLLPPAPP | 0.612 ± 0.026
130 | GRLGCAVCGSRG | 0.708 ± 0.041

Row | Sequence | protein stability index
131 | LVSGFRYPFSCL | 0.611 ± 0.037
132 | SSGSRCQQKIRY | 0.66 ± 0.11
133 | PPPTRPPPPPSL | 0.704 ± 0.075
134 | ALVQAAPPGRTP | 0.6864 ± 0.0049
135 | CSAAVVQSSGSE | 0.67 ± 0.034
136 | VYLTGRCRRCLR | 0.702 ± 0.05
137 | NCFIPPARVFPS | 0.686 ± 0.028
138 | DPEDPPRAREPQ | 0.673 ± 0.038
139 | PHPPLPPPPPPP | 0.702 ± 0.018
140 | VSGDPWMWDVFI | 0.746 ± 0.036
141 | LRSQDFKGHLRT | 0.6606 ± 0.0029
142 | GPGCDDDASGSV | 0.686 ± 0.013
143 | PRLVALFEKNPD | 0.6615 ± 0.0012
144 | RADLLQRGGDRI | 0.677 ± 0.093
145 | LSSTGFDLWSLL | 0.769 ± 0.067
146 | PSPPRAPSTPLI | 0.744 ± 0.06
147 | KSASIGTTLRNL | 0.699 ± 0.022
148 | PPFLRSALRSSS | 0.672 ± 0.015
149 | VAVSLFVPVLFL | 0.567 ± 0.061
150 | ALSEAITLPVNP | 0.674 ± 0.085
151 | TTRLARNEQVKR | 0.62 ± 0.1
152 | PIQYMLRSSMPR | 0.688 ± 0.065
153 | PASRNWGLNPDT | 0.677 ± 0.025
154 | GPGRIPLTSALP | 0.63968 ± 0.00049
155 | SLFFFLFSPSCL | 0.691 ± 0.075
156 | NKKKKHTQYKRK | 0.694 ± 0.0077

Row | Sequence | protein stability index
157 | GLRRWLSTAMRR | 0.7339 ± 0.0033
158 | ECGNYRGPYRTR | 0.678 ± 0.026
159 | AASPPPRISAWL | 0.746 ± 0.02
160 | LLHHSSVSFFSL | 0.71 ± 0.016
161 | SSRAGVRRPHSR | 0.685 ± 0.053
162 | KKKKKEKNKIKI | 0.689 ± 0.14
163 | TCPDSVMDRLDS | 0.696 ± 0.12
164 | LSSSVIFALPLP | 0.767 ± 0.034
165 | CVGSVEVGHSGI | 0.702 ± 0.02
166 | KKKNNEKLEEKK | 0.687 ± 0.0098
167 | PQPHLLRPPPHS | 0.674 ± 0.018
168 | PPLLPPVSPPPP | 0.684 ± 0.061
169 | SFSPLHVGPSPL | 0.6843 ± 0.0048
170 | TCDGSCRRGDLR | 0.663 ± 0.066
171 | LVGALISHSILR | 0.629 ± 0.019
172 | NGGERQDGGKHR | 0.648 ± 0.034
173 | FSLPSLLPDPPS | 0.579 ± 0.011
174 | TRFCDFTSSVTT | 0.711 ± 0.041
175 | TASVDQAVRWRG | 0.708 ± 0.054
176 | HVMLPFTGIGKF | 0.672 ± 0.06
177 | SGEVFEDLRAPE | 0.743 ± 0.038
178 | SPRPAPPRSTPP | 0.67 ± 0.063
179 | PLRTCPCAPLPS | 0.689 ± 0.012
180 | FRLQSLFPYVVK | 0.604 ± 0.047
181 | RAFASLALAILP | 0.623 ± 0.038
182 | VASITEIRKKGR | 0.629 ± 0.022

Row | Sequence | protein stability index
183 | DPSMSNRDRRLP | 0.708 ± 0.036
184 | GEQAGLSLTAGP | 0.678 ± 0.03
185 | PPPTPPPPRPLL | 0.747 ± 0.048
186 | RGVIWLVCGGPC | 0.54 ± 0.032
187 | DGVSRSHFQCVS | 0.708 ± 0.044
188 | AGRVGRRGPPNR | 0.629 ± 0.038
189 | TTLSMYFCMCVL | 0.638 ± 0.14
190 | ETQEAKGGMTRQ | 0.667 ± 0.0091
191 | TKKNKTKKGQNK | 0.7099 ± 0.006
192 | PPAPPLPSSPSP | 0.773 ± 0.024
193 | ILTPPPLPDLLP | 0.706 ± 0.019
194 | VGGIGKGSWRWM | 0.6466 ± 0.0034
195 | GGFESRVVGGVG | 0.526 ± 0.034
196 | WRGGWAETGGRE | 0.705 ± 0.013
197 | LFSCVFFLCLNF | 0.512 ± 0.0074
198 | SLQGLLSIVNYR | 0.78 ± 0.15
199 | AWGARWVCVMGG | 0.626 ± 0.027
200 | PRSPPPPPSYSP | 0.703 ± 0.13
201 | GSGSVWQGLGSG | 0.711 ± 0.032
202 | SIGAGSSGVGQE | 0.685 ± 0.037
